Numbered stars: 1 amine (or outer) side, 2 acyl side, 3 side chain; on linkers, the order of the positions; unused ones are H or OH. Bridge positions count the residues as written; N and C are the ends. Side chains are listed from the residue outwards. Ends that are not written are not given here. * marks the point of attachment. C20 diacid = O=C(O)CCCCCCCCCCCCCCCCCCC(=O)*; C18 diacid = O=C(O)CCCCCCCCCCCCCCCCC(=O)*; C16 diacid = O=C(O)CCCCCCCCCCCCCCC(=O)*; γGlu = O=C(O)[C@H](CCC(=O)[*:2])N[*:1]; C14 diacid = O=C(O)CCCCCCCCCCCCC(=O)*

To fix the notation:
T1: rat calcitonin receptor (rat, UniProt P32214 25-516)
T1 construct: whole, on cells; Membranes of transiently transfected BHK tk'ts 13 cells (Assay VIII); also called rCTR
T1 sequence (looked up): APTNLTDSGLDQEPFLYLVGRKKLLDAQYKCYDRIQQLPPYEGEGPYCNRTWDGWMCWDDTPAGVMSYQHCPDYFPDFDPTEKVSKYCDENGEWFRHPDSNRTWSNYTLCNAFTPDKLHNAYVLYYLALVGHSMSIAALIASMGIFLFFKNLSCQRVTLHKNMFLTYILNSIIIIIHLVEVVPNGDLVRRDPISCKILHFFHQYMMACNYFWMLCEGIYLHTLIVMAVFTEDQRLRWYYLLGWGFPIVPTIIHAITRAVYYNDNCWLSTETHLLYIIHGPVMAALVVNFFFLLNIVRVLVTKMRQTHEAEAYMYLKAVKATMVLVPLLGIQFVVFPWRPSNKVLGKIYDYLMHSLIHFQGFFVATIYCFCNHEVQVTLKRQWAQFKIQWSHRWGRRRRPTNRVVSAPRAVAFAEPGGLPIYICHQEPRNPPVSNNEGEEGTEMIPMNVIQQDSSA

T2: human calcitonin receptor (human, UniProt P30988 25-474)
T2 construct: whole, on cells; Membranes of a stably transfected BHK cell line (Assay VII); also called hCTR; hCT
T2 sequence (looked up): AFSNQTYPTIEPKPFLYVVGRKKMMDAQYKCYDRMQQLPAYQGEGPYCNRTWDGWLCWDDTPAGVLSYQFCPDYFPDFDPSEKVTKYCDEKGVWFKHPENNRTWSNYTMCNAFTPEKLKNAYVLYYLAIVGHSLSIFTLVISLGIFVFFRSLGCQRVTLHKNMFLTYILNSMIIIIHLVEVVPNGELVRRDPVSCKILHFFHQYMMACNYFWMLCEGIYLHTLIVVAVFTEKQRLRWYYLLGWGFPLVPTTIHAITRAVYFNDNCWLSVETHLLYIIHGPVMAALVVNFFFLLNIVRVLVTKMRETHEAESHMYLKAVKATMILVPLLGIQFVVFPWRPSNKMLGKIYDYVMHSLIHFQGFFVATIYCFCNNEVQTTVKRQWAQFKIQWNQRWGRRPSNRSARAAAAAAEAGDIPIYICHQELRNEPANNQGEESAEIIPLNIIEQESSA

T3: rat amylin receptor (rat calcitonin receptor + rat RAMP 3) (rat, UniProt P32214 25-516; Q9JJ73 23-147)
T3 construct: whole, on cells; Membranes of transiently transfected BHK tk'ts 13 cells (Assay VI); also called rAmylin-R; rat amylin 3(a) receptor
T3 sequence (looked up) 1: T1 sequence (looked up)
T3 sequence (looked up) 2: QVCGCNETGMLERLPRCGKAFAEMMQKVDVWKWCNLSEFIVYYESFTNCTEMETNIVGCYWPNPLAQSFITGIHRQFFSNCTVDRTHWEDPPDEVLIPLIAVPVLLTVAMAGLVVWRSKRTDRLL

B1: N^ε1-[(4S)-4-carboxy-4-(13-carboxytridecanoylamino)butanoyl]-[Arg17,Pro21,Pro27,His34]-h-amylin (peptide)
peptide: K([γGlu-C14 diacid])CNTATCATQRLANFLRHSSPNFGAIPSSTNVGHNTY-NH2
modifications: disulfide 2-7; N-terminus assumed
SMILES: CC[C@H](C)[C@H](NC(=O)[C@H](C)NC(=O)CNC(=O)[C@H](Cc1ccccc1)NC(=O)[C@H](CC(N)=O)NC(=O)[C@@H]1CCCN1C(=O)[C@H](CO)NC(=O)[C@H](CO)NC(=O)[C@H](Cc1c[nH]cn1)NC(=O)[C@H](CCCNC(=N)N)NC(=O)[C@H](CC(C)C)NC(=O)[C@H](Cc1ccccc1)NC(=O)[C@H](CC(N)=O)NC(=O)[C@H](C)NC(=O)[C@H](CC(C)C)NC(=O)[C@H](CCCNC(=N)N)NC(=O)[C@H](CCC(N)=O)NC(=O)[C@@H](NC(=O)[C@H](C)NC(=O)[C@@H]1CSSC[C@H](NC(=O)[C@@H](N)CCCCNC(=O)CC[C@H](NC(=O)CCCCCCCCCCCCC(=O)O)C(=O)O)C(=O)N[C@@H](CC(N)=O)C(=O)N[C@@H]([C@@H](C)O)C(=O)N[C@@H](C)C(=O)N[C@@H]([C@@H](C)O)C(=O)N1)[C@@H](C)O)C(=O)N1CCC[C@H]1C(=O)N[C@@H](CO)C(=O)N[C@@H](CO)C(=O)N[C@H](C(=O)N[C@@H](CC(N)=O)C(=O)N[C@H](C(=O)NCC(=O)N[C@@H](Cc1c[nH]cn1)C(=O)N[C@@H](CC(N)=O)C(=O)N[C@H](C(=O)N[C@@H](Cc1ccc(O)cc1)C(N)=O)[C@@H](C)O)C(C)C)[C@@H](C)O
B2: N^ε1-[(4S)-4-carboxy-4-(15-carboxypentadecanoylamino)butanoyl]-[Arg17,Pro21,Pro27,His34]-h-amylin (peptide)
peptide: K([γGlu-C16 diacid])CNTATCATQRLANFLRHSSPNFGAIPSSTNVGHNTY-NH2
modifications: disulfide 2-7; N-terminus assumed
SMILES: CC[C@H](C)[C@H](NC(=O)[C@H](C)NC(=O)CNC(=O)[C@H](Cc1ccccc1)NC(=O)[C@H](CC(N)=O)NC(=O)[C@@H]1CCCN1C(=O)[C@H](CO)NC(=O)[C@H](CO)NC(=O)[C@H](Cc1c[nH]cn1)NC(=O)[C@H](CCCNC(=N)N)NC(=O)[C@H](CC(C)C)NC(=O)[C@H](Cc1ccccc1)NC(=O)[C@H](CC(N)=O)NC(=O)[C@H](C)NC(=O)[C@H](CC(C)C)NC(=O)[C@H](CCCNC(=N)N)NC(=O)[C@H](CCC(N)=O)NC(=O)[C@@H](NC(=O)[C@H](C)NC(=O)[C@@H]1CSSC[C@H](NC(=O)[C@@H](N)CCCCNC(=O)CC[C@H](NC(=O)CCCCCCCCCCCCCCC(=O)O)C(=O)O)C(=O)N[C@@H](CC(N)=O)C(=O)N[C@@H]([C@@H](C)O)C(=O)N[C@@H](C)C(=O)N[C@@H]([C@@H](C)O)C(=O)N1)[C@@H](C)O)C(=O)N1CCC[C@H]1C(=O)N[C@@H](CO)C(=O)N[C@@H](CO)C(=O)N[C@H](C(=O)N[C@@H](CC(N)=O)C(=O)N[C@H](C(=O)NCC(=O)N[C@@H](Cc1c[nH]cn1)C(=O)N[C@@H](CC(N)=O)C(=O)N[C@H](C(=O)N[C@@H](Cc1ccc(O)cc1)C(N)=O)[C@@H](C)O)C(C)C)[C@@H](C)O
B3: N^ε1-[(4S)-4-carboxy-4-(17-carboxyheptadecanoylamino)butanoyl]-[Arg17,Pro21,Pro27,His34]-h-amylin (peptide)
peptide: K([γGlu-C18 diacid])CNTATCATQRLANFLRHSSPNFGAIPSSTNVGHNTY-NH2
modifications: disulfide 2-7; N-terminus assumed
SMILES: CC[C@H](C)[C@H](NC(=O)[C@H](C)NC(=O)CNC(=O)[C@H](Cc1ccccc1)NC(=O)[C@H](CC(N)=O)NC(=O)[C@@H]1CCCN1C(=O)[C@H](CO)NC(=O)[C@H](CO)NC(=O)[C@H](Cc1c[nH]cn1)NC(=O)[C@H](CCCNC(=N)N)NC(=O)[C@H](CC(C)C)NC(=O)[C@H](Cc1ccccc1)NC(=O)[C@H](CC(N)=O)NC(=O)[C@H](C)NC(=O)[C@H](CC(C)C)NC(=O)[C@H](CCCNC(=N)N)NC(=O)[C@H](CCC(N)=O)NC(=O)[C@@H](NC(=O)[C@H](C)NC(=O)[C@@H]1CSSC[C@H](NC(=O)[C@@H](N)CCCCNC(=O)CC[C@H](NC(=O)CCCCCCCCCCCCCCCCC(=O)O)C(=O)O)C(=O)N[C@@H](CC(N)=O)C(=O)N[C@@H]([C@@H](C)O)C(=O)N[C@@H](C)C(=O)N[C@@H]([C@@H](C)O)C(=O)N1)[C@@H](C)O)C(=O)N1CCC[C@H]1C(=O)N[C@@H](CO)C(=O)N[C@@H](CO)C(=O)N[C@H](C(=O)N[C@@H](CC(N)=O)C(=O)N[C@H](C(=O)NCC(=O)N[C@@H](Cc1c[nH]cn1)C(=O)N[C@@H](CC(N)=O)C(=O)N[C@H](C(=O)N[C@@H](Cc1ccc(O)cc1)C(N)=O)[C@@H](C)O)C(C)C)[C@@H](C)O
B4: N^ε1-[(4S)-4-carboxy-4-(19-carboxynonadecanoylamino)butanoyl]-[Ala14,Arg17,Pro21,Pro27,His34]-h-amylin (peptide)
peptide: K([γGlu-C20 diacid])CNTATCATQRLAAFLRHSSPNFGAIPSSTNVGHNTY-NH2
modifications: disulfide 2-7; N-terminus assumed
SMILES: CC[C@H](C)[C@H](NC(=O)[C@H](C)NC(=O)CNC(=O)[C@H](Cc1ccccc1)NC(=O)[C@H](CC(N)=O)NC(=O)[C@@H]1CCCN1C(=O)[C@H](CO)NC(=O)[C@H](CO)NC(=O)[C@H](Cc1c[nH]cn1)NC(=O)[C@H](CCCNC(=N)N)NC(=O)[C@H](CC(C)C)NC(=O)[C@H](Cc1ccccc1)NC(=O)[C@H](C)NC(=O)[C@H](C)NC(=O)[C@H](CC(C)C)NC(=O)[C@H](CCCNC(=N)N)NC(=O)[C@H](CCC(N)=O)NC(=O)[C@@H](NC(=O)[C@H](C)NC(=O)[C@@H]1CSSC[C@H](NC(=O)[C@@H](N)CCCCNC(=O)CC[C@H](NC(=O)CCCCCCCCCCCCCCCCCCC(=O)O)C(=O)O)C(=O)N[C@@H](CC(N)=O)C(=O)N[C@@H]([C@@H](C)O)C(=O)N[C@@H](C)C(=O)N[C@@H]([C@@H](C)O)C(=O)N1)[C@@H](C)O)C(=O)N1CCC[C@H]1C(=O)N[C@@H](CO)C(=O)N[C@@H](CO)C(=O)N[C@H](C(=O)N[C@@H](CC(N)=O)C(=O)N[C@H](C(=O)NCC(=O)N[C@@H](Cc1c[nH]cn1)C(=O)N[C@@H](CC(N)=O)C(=O)N[C@H](C(=O)N[C@@H](Cc1ccc(O)cc1)C(N)=O)[C@@H](C)O)C(C)C)[C@@H](C)O
notes: also called compound 93

The first test deals with T1, rat calcitonin receptor. Description: ratio IC50 rat calcitonin receptor / IC50 rat amylin receptor (reference).
For B1, the “Ratio rCT/rAmylin binding” value was 280.

For B2, the “Ratio rCT/rAmylin binding” value was determined as 327.

As to B3, the “Ratio rCT/rAmylin binding” value was found to be 40.3.

Take B4: the “Ratio rCT/rAmylin binding” value amounted to 83.2.

Another test addresses T2, human calcitonin receptor. Description: ratio IC50 human calcitonin receptor / IC50 human amylin receptor (reference). The method, then:
The resulting pellet was resuspended, homogenized and centrifuged (20.000 rpm, 15 min) in a buffer containing 20 mM Na-HEPES and 0.1 mM EDTA (pH 7.4, buffer 2). The resulting pellet was resuspended in buffer 2 and protein concentration was measured (BCA protein Assay, Pierce). The homogenate was kept cold during the whole procedure. The membranes were kept at −80° C. until use. The assay was performed in a 384 well Optiplate (PerkinElmer) in a total volume of 40 ul. Membranes were mixed with SPA beads. Final concentration of membranes 35 ng/μL final and SPA beads was 0.05 mg/well. Test-compounds were dissolved in DMSO and further diluted in assay buffer (50 mM Hepes, pH 7.4, 1 mM CaCl2, 5 mM MgCl₂, 0.1% OA and 0.02% Tween20). […] The final mixture was incubated with shaking at 400 rpm for 120 min at 25° C. prior to centrifugation (1500 rpm, 10 min). Samples were analyzed on TopCounter™ (Packard). The IC₅₀ was calculated using (one site binding competition analysis) GraphPad Prism5 as a measure of receptor affinity.
Membranes were prepared in the following way; the cells were rinsed with PBS and incubated with Versene for approximately 5 min before harvesting. The cells were flushed with PBS and the cell-suspension was centrifuged for 5 min at 1000 rpm. Cells were homogenized (Ultrathurrax) in a buffer containing 20 mM Na-HEPES and 10 mM EDTA (pH 7.4) and centrifuged at 20.000 rpm for 15 min. The resulting pellet was resuspended, homogenized and centrifuged (20.000 rpm, 15 min) in a buffer containing 20 mM Na-HEPES and 0.1 mM EDTA (pH 7.4, buffer 2). The resulting pellet was resuspended in buffer 2 and protein concentration was measured (BCA protein Assay, Pierce). The homogenate was kept cold during the whole procedure. The membranes were kept at −80° C. until use. Assay was performed in a 384 well Optiplate (PerkinElmer) in a total volume of 40 ul. Membranes were mixed with SPA beads.
Take B1: the “Ratio hCT/hAmylin binding” value was found to be 23.5.

Turning to B2, the “Ratio hCT/hAmylin binding” value came to 18.5.

With B3, the “Ratio hCT/hAmylin binding” value was 59.4.

As to B4, the “Ratio hCT/hAmylin binding” value was 101.

The target of another test is T1, rat calcitonin receptor. The experiment in a line: SPA competition with 125I-calcitonin, membranes of BHK cells with rat calcitonin receptor (Assay VIII).
One may read the IC50 as the concentration that gives 50% inhibition. For the molecule B1, the IC50 is 707 nM.

Consider B2, for which the IC50 is 404 nM.

Take B3: the IC50 came out at 47 nM.

As to B4, the IC50 amounted to 131 nM.

The target in a further test is T3, rat amylin receptor (rat calcitonin …). Description: SPA competition with 125I-rat amylin, membranes of BHK cells with rat calcitonin receptor + rat RAMP3 (Assay VI).
For B1, the IC50 turned out to be 2.52 nM.

Take B2: the IC50 worked out at 1.24 nM.

Take B3: the IC50 is 1.17 nM.

Regarding B4, the IC50 was 1.58 nM.

(Values after patent US20140087995A1 (published 2014).)
